{"source": "the nanobody polyreactivity screen of Harvey et al. (2022)", "data": [{"experiment": "yeast display, Sf9 membrane polyspecificity reagent, FACS + sequencing; frameworks hold sequencing errors", "summary_of_the_method": "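In a synthetic yeast display library (Saccharomyces cerevisiae BJ5465), nanobody expression was induced with galactose for 36–48 hours. FACS gates were set low and high (top ~1%) using anti-HA fluorescence for expression and streptavidin fluorescence for binding of the Sf9 membrane reagent. Each polyreactivity label is drawn from the gate of origin.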", "values": [{"sequence": "KVQLVESGGGLVQAGGSLRLSCAASGRIFKYYAMGWYRQAPGKEMELVARISRSSGNTYYADSVKGRFTISRDNAKKTVYLQMNSLIPEDTAVYYCATVPHYNGFNYWGQGTQVTVSS", "polyreactivity (PSR sort gate)": "high polyreactivity"}, {"sequence": "KVQLVESGGGLVQAGGSLRLSCAASGRIFLPYAMGWYRQAPGKEREFVAAITWGAGTTYYADSVKGRFTISRDNAKNTVYLQMNSLKPEDTAVYYCAAEYRVLSWTYGYWGQGTQVTVSS", "polyreactivity (PSR sort gate)": "high polyreactivity"}, {"sequence": "KVQLVESGGGLVQAGGSLRLSCAASGSIFIGYAMGCYRQAPGKERELVAAISYRGGSTYYADSVKGRFTISRDNAKNTVYLQMNSLKPEDTAVYYCATVLPVQQTRLGYSSRYYYWGQGTQVTVSS", "polyreactivity (PSR sort gate)": "high polyreactivity"}, {"sequence": "KVQLVESGGGLVQAGGSLRLSCAASGSTFAGNALGWYRKAPGKERELVAAIDSSTGSTYYADSVKGRFTISRDNAKNTVYLQMNSLKPEDTAVYYCNKTSLLVKLDYWGPGTQVTVSS", "polyreactivity (PSR sort gate)": "low polyreactivity"}, {"sequence": "KVQLVESGGGLVQAGGSLRLSCAPSGRIFQPNVMGWYRQPPGKVRELAAAIRSVSSTYYADSVKGRFTISRDNAKNSVYLQMNSLKPEDTAVYYCAARLFLRGYTRGNYLGQGTQVTVSS", "polyreactivity (PSR sort gate)": "high polyreactivity"}, {"sequence": "KVQLVESGGSLVQAGGSLRLSSAASGRIITGYAMGWYRQAPGKEWELVAAITGSCVSTYYADSVKGRFTISRDNSKNTVYLQMNSLKPEDTAVYYCAARRYYGYVHWGQGTQVTVSS", "polyreactivity (PSR sort gate)": "high polyreactivity"}, {"sequence": "KVQLVESGRALVQAGGSLRLSCAASGSTFGNNAMGWNRPAPGKERELVATIDDTTVSTNYADSVKGRFTISRDNAKNTVYLQMTCLKPEDTAVYYCSADDVDGSPYDYWGQGTQGTVSS", "polyreactivity (PSR sort gate)": "low polyreactivity"}, {"sequence": "KVQLVESGVGLDQAGGSHRLSCDASGYIFDDYAMGWYRKAPGKERELVAAISSSGTSTNYADSVKVRFTISRDNAKNTVYLQMNSLKPEDTAVYYCAARSAILKSGYLMDYWGLGTQVTVSS", "polyreactivity (PSR sort gate)": "low polyreactivity"}, {"sequence": "KVQLVESVGGLVQAGGSLRLSCAASGSIFRGNAIGWYRQAPGKERQLVAAISNSSGTTYYADSVKGRFTISRDNAKNTVYLQMNSLKPEDTAVYYCATRYYRGYVRGTHHVGGYYYRGQGTQVTVSS", "polyreactivity (PSR sort gate)": "low polyreactivity"}, {"sequence": "KVQLVQSGGGLVQAGGILRLSCAASGRIFSSYAMGWYSQAPGKERELVAVISQRGGSTSYADSVKGRFTISRDNAKNTVYLQMNSLKPEDTAVYYCARRPGKGNNYWGQGTQVTVSS", "polyreactivity (PSR sort gate)": "high polyreactivity"}, {"sequence": "LVHLQESGGGMVQAGGSLRLSGAAIGYISWADYMGWYRQAPGKERELVAGIGYGSTTYYADSVKGRFTISRDNAKNTAYLQMNSLKPEDTGVYYCAVGLDRDTAYKYWGQGTQVTVSS", "polyreactivity (PSR sort gate)": "low polyreactivity"}, {"sequence": "LVHLVESGGGLVQAGGSLRLSCAASGITFTGYAMGWYRQAPGKERELVAAITWSSGSTYYADSVKGRFTISRDNAKNTVYLQMNSLKPEDTAVYYCNAGYWYDGPDYIPEYDYWGQGTQVTVSS", "polyreactivity (PSR sort gate)": "low polyreactivity"}, {"sequence": "LVQHQESGGGLVQAGGSLRLSCAASGTIFLRYYMGWYRQAPGKQREFVAAINIGATANYADSLKGRFTISRDNAKNTVYLQMKSLYPQDTAVYYCAVYYPIYRQHDYWGQGSQVTVSS", "polyreactivity (PSR sort gate)": "low polyreactivity"}, {"sequence": "LVQHVESGGGIVQAGGSLRLICAASGFPYNYYAMGWYRQAPGTEREFVAAISSGGGSTYYAYSVKGRFTISRDNAKNTVYLQMNSLKPEDTSGYYCAADRYSHYGYWGQATQVTVSS", "polyreactivity (PSR sort gate)": "low polyreactivity"}, {"sequence": "LVQHVESGGGLVKAGGSLRLICAASGRTFLRNAMGWYRQAPGKERELVATITRGGSTYYADSVKGRFTISRDNAKNTVYLEKTSLKPEDTAVYYCSKDFSGGFRRPDYGYWGQGPQVTVSS", "polyreactivity (PSR sort gate)": "low polyreactivity"}, {"sequence": "LVQLEDSGGGLVQGGGSLRLSCAASGRIFSANAMGCYRQATGKERELVASISTGGGRTYYADSVKGRFTISRDNAKNTVYLQMISLKPEDTAVYYCNAILRPFRVRGTYGTYGYDYWGQGTQVTVSS", "polyreactivity (PSR sort gate)": "high polyreactivity"}, {"sequence": "LVQLQECGGGLVQAGGSLRLSCAASGNIFDADIMGWYRQAPCKERELVASVTDGGSTNYADSVKGRFTISRDNAKNTVYLQMNSLKPEDTAVYYCEAIVYPDILTYFDYDYDYFYWGQGTQVTVGS", "polyreactivity (PSR sort gate)": "low polyreactivity"}, {"sequence": "LVQLQESGGGLVQAGGSLRLSCAASGTISPGGYMGWYRQAPGKERELVASINVGGSTNYADSVKGRFTISRDNAKNTVYLQMNSLKQEDNAVYYCAVWGRNRLQLSYWGQGTQVTVSS", "polyreactivity (PSR sort gate)": "low polyreactivity"}, {"sequence": "LVQLVESGGALVQAGGSLRLSCAASGLIFYDYAMGWYRQAPGNDRELVAAISKGGGSTYYADSVKGRFTISRDYAKNSVYLQMNSLNTEDTAVYYGAASTSHTTDTRYDYWGQGTQVTVSS", "polyreactivity (PSR sort gate)": "low polyreactivity"}, {"sequence": "LVQLVESGGGLVQAGGSLRLSCAASGFSFTSYTMGWYRQAPWKERELVAGISTNGGTTYYADSVKGRFTISRDNAKNTVYLQMNSLKPEDTAVYYCNAKRKYGRFPKKYYYWGQGTQVTVSS", "polyreactivity (PSR sort gate)": "high polyreactivity"}, {"sequence": "LVQLVESGGGLVQAGGSLRLSCAASGIIFRDNAMGWYRQAPGKERELVAAIDSSGGTTYADSVMGRFTISRDNAKNTVYLQMNSLKPEDTAVFYCATEVYWTVSYYGYDYYGGNYYYWGQGTQVTVSS", "polyreactivity (PSR sort gate)": "low polyreactivity"}, {"sequence": "LVQLVESGGGLVQAGGSLRLSCAASGNIFVSYAMGWYRQAPGKERELVAAISKSGGSTYYADSVKGRFTISRDNAKNTVYLQMNSLKPEDTAVYDCAARWYNRVKYQKFNYWGQGTQVTVSS", "polyreactivity (PSR sort gate)": "high polyreactivity"}, {"sequence": "LVQLVESGGGLVQAGGSLRLSSAASGLIFGYNAKGWYRQAPGKERELVAASSWSGGRTYYADSVKGRFTISRDNAKNTVYLHMNILKPEDTAVYYCAAVVRHSYFRDDHWGQGTQVTVSS", "polyreactivity (PSR sort gate)": "high polyreactivity"}, {"sequence": "LVQLVQSGGGLVQAGGTLRISSAASGSTLDWYAMGWYRQAPGKERELVAAITSGGSTYYADSVKGRFTISRDNAKNTVYLQMNSLKPEDTAVYYCAAEYYTWYYDIYDYWGQGTQVTVSS", "polyreactivity (PSR sort gate)": "high polyreactivity"}, {"sequence": "LVQVVESGGGLVQAGGSLRLSCAASGIFSRYARGWYRQAPGKERELVAAISNGGRTYYADSVKGRFTSARDNAKNTVYLQMNSLNPEDTAVYYCNKVRSPWYESWGQGTQVTVSS", "polyreactivity (PSR sort gate)": "high polyreactivity"}, {"sequence": "PLQLVESGGGLGQAGGSLRLSCAASGSTFGHNAMGWYRPAPGKERELVAAISISGGRTYYADSVKGRFTISRDNAKNTVYLQMISRKPEDTAVYYCAAEVWYVGDNYDYWGQGTQVTLSS", "polyreactivity (PSR sort gate)": "high polyreactivity"}, {"sequence": "PVQIVESGGGLVQAGGRLRLSCAASGSILVPYAMGWSRQAPGKERELVADISIRTGSTYYADSVKGRFTISRDNAKNTVYLQMYSLKPEETAVYYCNAAHRKPYTGLYYWGQGTQVTVSS", "polyreactivity (PSR sort gate)": "high polyreactivity"}, {"sequence": "PVQLQESGGGLVQAGGSLRLSCAASGNIFDADIMGWYRQAPGKESELVACIADGGSTNYAESVKGRFTISRDNAKNTVYLQMNRLKPEDTAVYYCAAIAYPDIPTCFDYDSDYFFRGQGTQVTVSS", "polyreactivity (PSR sort gate)": "low polyreactivity"}, {"sequence": "PVQLVESGGGLDQAGGSLRLTCAASGSIFYYNAKGWYRQSPGKERELVAAISSDGGTYYADSVKARFTISRDNAKKTVYLQMNSLKPEDTAVYYCAASQPSTYDYWGQGTQLTVSS", "polyreactivity (PSR sort gate)": "high polyreactivity"}, {"sequence": "PVQLVESGGGLVHAGGSLRLSCAASGLTFRYYAMGLYRQAPGKERELVASISWSGASTYYADSVKGRFTISRDNAKNTVYLQMNSLKPEDTEVYYCNAGYYGSYDYWGQGTQVTVSS", "polyreactivity (PSR sort gate)": "high polyreactivity"}, {"sequence": "PVQLVESGGGLVPGGGSLRLSCAASGRIFNAYARGWYRQAPGKERELVAAISSRGGSTYYADSVKGRCTISRDNAKNSVYLQKNSLPPEDTAVYYCAAGIYTATGYGYWGQGTQVTVSS", "polyreactivity (PSR sort gate)": "high polyreactivity"}, {"sequence": "PVQLVESGGGLVQAGGSLRLSCAACGSIIAGYAMGWYRQAPGKERELVAAISWSGGGTYYADSVKGRFTISRDNAKNTVYLQMNSLKPEDTAVYYCNAYGYRHRGNGYWGQGTQVTVSS", "polyreactivity (PSR sort gate)": "high polyreactivity"}, {"sequence": "PVQLVESGGGLVQAGGSLRLSCAASGFTFPNYAMGWYRQAPGKERELVAVITYSGGSTYYADTVKGRFTISRDNAKNTVYLQMNRLKPEDTAVYYCNARYPGSWYFGQYGGYDYGYWGQGTQVTVSS", "polyreactivity (PSR sort gate)": "low polyreactivity"}, {"sequence": "PVQLVESGGGLVQAGGSLRLSCAASGFTFRPYAMGWYRPAPGTERELVAAITSGDSTNYADSVKGRFTISRDNAKKTVYLQMNSLKPEDTAVYYCAADSTGRPSVSYDYWGQGTQVTVSS", "polyreactivity (PSR sort gate)": "low polyreactivity"}, {"sequence": "PVQLVESGGGLVQAGGSLRLSCAASGFTFTRYVMGWYRQAPGKERELVAAISGSGGSTNYADSVKGRFTISRDNAKNTVSLQMISLKPEDTAVYYCADRFVGSRYRFDYWGQGTQVTVSS", "polyreactivity (PSR sort gate)": "high polyreactivity"}, {"sequence": "PVQLVESGGGLVQAGGSLRLSCAASGIIFVKYAMGWYRQAPGKERELVAAISTRGGSTYYADSVKGRFTISRDNAMNTVYLQMNSLKPEDTAVYYCAADATRKSQLPNTVPYDYWGQGTQVTVSS", "polyreactivity (PSR sort gate)": "high polyreactivity"}, {"sequence": "PVQLVESGGGLVQAGGSLRLSCAASGSTFPYYDMGWYRPAPGKEREMVAAISASTGSTYYADSVKGRFTISRDKAKITVYLHMYSLKPEVTAVYYCAAAYYYWYTAYDYWGQGTQVTVSS", "polyreactivity (PSR sort gate)": "high polyreactivity"}, {"sequence": "PVQLVESGGGLVQAGGSLRLSCAASGSTFVVYAMGWYRQAPGKERELVAAITSGVSTNYADSVKGRFTISRDNAKNTVYLQMNSLKPEDTAVYYCNKDVRPAYRWYDYWGQDTQVTVSS", "polyreactivity (PSR sort gate)": "low polyreactivity"}, {"sequence": "PVQLVESGGVLVQAGCILRLSCAASGSTFYGYAMGWYRQAPGKERELVAANTSTVITDYADSVKGRFTISRDNAKNTFYFQMNSLKPEVPAVYDCNKERATSVTAEFRGDDAYWVQGTQVTVSS", "polyreactivity (PSR sort gate)": "low polyreactivity"}, {"sequence": "QAELVESGGGLVQAGGSLRLSCAASGFTFTAYAMGWYRQAPGKERELVAAISYRGGRTNYAYSVKGRFTISRDNAKNTVYLQMNSLKPEDTAVYYCAARPRISTREMDYWGQGTQVTVSS", "polyreactivity (PSR sort gate)": "high polyreactivity"}, {"sequence": "QAQLQESCGSLVQAGGGQRLSCAASGYISVGTVIGWYRQAPSKERELVASIDQGANTNYADSVKGRFTISRDNAKNNVYLKMNSLKPEDTAVYYCATESTYILNYWGQGTQVTVSS", "polyreactivity (PSR sort gate)": "low polyreactivity"}, {"sequence": "QAQLQESGGSLVQAGGGLRLSCAASGYISVGSVMGWYRQAPSKERELVASIDQGANTNYADSVKGRFTISRDNAKNNVYLQMNSLKPEDTAVYYCATVTTYILNYWGQGTQVTVCS", "polyreactivity (PSR sort gate)": "low polyreactivity"}, {"sequence": "QAQLQESGGSLVQAGGGLRLSCAASGYSSVGSVMGWYRQAPSKEREHVASIDQGANTNYADSVKGRFTISRDNAKNNVYLQMTSLKPEDTAVYYCATETTYILNYWGQGTQVTVSS", "polyreactivity (PSR sort gate)": "low polyreactivity"}]}]}
